Article PMC9482650, “Quantitative fragmentomics allow affinity mapping of interactomes” (Nature Communications, 2022)

T1: TIAM2, Q8IVF5
T1 sequence (Q8IVF5 885-986, limits assumed, looked up): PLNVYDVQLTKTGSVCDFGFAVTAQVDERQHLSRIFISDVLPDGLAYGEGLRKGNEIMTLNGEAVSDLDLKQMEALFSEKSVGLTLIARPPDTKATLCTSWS

T2: NHERF3_1, Q5T2W1
T2 sequence (Q5T2W1 4-100, limits assumed, looked up): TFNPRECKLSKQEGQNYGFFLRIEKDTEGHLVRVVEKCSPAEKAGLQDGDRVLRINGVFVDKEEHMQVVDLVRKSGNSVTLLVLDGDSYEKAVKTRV

T3: NHERF3_3, Q5T2W1
T3 sequence (Q5T2W1 238-333, limits assumed, looked up): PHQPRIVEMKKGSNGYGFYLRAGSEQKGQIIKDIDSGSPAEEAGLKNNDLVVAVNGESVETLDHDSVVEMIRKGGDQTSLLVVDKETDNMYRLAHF

T4: MPP2, Q14168
T4 sequence (Q14168 180-250, limits assumed, looked up): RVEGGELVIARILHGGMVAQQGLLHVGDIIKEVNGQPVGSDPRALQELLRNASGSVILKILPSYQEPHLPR

T5: LNX2_2, Q8N448
T5 sequence (Q8N448 334-432, limits assumed, looked up): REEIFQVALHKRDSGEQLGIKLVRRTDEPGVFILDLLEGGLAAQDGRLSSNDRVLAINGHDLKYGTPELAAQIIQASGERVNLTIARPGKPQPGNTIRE

T6: GRIP1_5, Q9Y3R0
T6 sequence (Q9Y3R0 568-668, limits assumed, looked up): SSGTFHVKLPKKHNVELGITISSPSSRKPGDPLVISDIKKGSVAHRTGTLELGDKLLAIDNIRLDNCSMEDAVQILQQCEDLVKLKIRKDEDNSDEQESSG

T7: TJP3_3, O95049
T7 sequence (O95049 375-456, limits assumed, looked up): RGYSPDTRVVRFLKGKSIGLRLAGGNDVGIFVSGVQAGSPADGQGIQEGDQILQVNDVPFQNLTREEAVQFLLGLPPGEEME

T8: PCLO, Q9Y6V0
T8 sequence (Q9Y6V0 4491-4600, limits assumed, looked up): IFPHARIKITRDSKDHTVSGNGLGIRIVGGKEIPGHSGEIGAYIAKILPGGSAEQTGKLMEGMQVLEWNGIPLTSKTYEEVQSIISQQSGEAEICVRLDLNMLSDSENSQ

T9: SHANK1, Q9Y566
T9 sequence (Q9Y566 658-767, limits assumed, looked up): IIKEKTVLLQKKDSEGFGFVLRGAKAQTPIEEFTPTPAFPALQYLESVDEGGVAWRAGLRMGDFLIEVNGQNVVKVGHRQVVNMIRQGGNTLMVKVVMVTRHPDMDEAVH

T10: DFNB31_3, Q9P202
T10 sequence (Q9P202 811-907, limits assumed, looked up): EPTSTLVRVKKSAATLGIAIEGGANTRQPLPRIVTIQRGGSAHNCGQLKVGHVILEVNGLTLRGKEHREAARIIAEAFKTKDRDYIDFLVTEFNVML

B1: SCN4B, Q8IWT1 (peptide)
chain: KAEEKPPSKV
B2: CD46, P15529 (peptide)
chain: THREVKFTSL
B3: NRXN3, Q9HDB5 (peptide)
chain: QKNKDREYYV

Assays:
Test in all cases: holdup assay
Set-up in all cases: key: below the threshold = too weak to quantify, mostly under pKd 3.1 to 4
Settings in all cases: plain residues with an end cap or a label only (N-terminal biotin on a linker: ado-ado)
TIAM2, Q8IVF5 = biological target: T1, TIAM2, Q8IVF5
NHERF3_1, Q5T2W1 = biological target: T2, NHERF3_1, Q5T2W1
NHERF3_3, Q5T2W1 = biological target: T3, NHERF3_3, Q5T2W1
NHERF4_1, Q86UT5-2 = biological target: NHERF4_1, Q86UT5-2
DLG2_2, Q15700 = biological target: DLG2_2, Q15700
MAGI2_6, Q86UL8 = biological target: MAGI2_6, Q86UL8
MPP2, Q14168 = biological target: T4, MPP2, Q14168
GRID2IP_1, A4D2P6 = biological target: GRID2IP_1, A4D2P6
DLG4_1, P78352 = biological target: DLG4_1, P78352
PTPN3, P26045 = biological target: PTPN3, P26045
PICK1, Q9NRD5 = biological target: PICK1, Q9NRD5
LNX2_2, Q8N448 = biological target: T5, LNX2_2, Q8N448
GRIP1_5, Q9Y3R0 = biological target: T6, GRIP1_5, Q9Y3R0
TJP3_3, O95049 = biological target: T7, TJP3_3, O95049
IL16_1, Q14005 = biological target: IL16_1, Q14005
GORASP1, Q9BQQ3 = biological target: GORASP1, Q9BQQ3
Inadl_8, Q8NI35 = biological target: Inadl_8, Q8NI35
PCLO, Q9Y6V0 = biological target: T8, PCLO, Q9Y6V0
FRMPD2_3, Q68DX3 = biological target: FRMPD2_3, Q68DX3
SHANK1, Q9Y566 = biological target: T9, SHANK1, Q9Y566
TJP1_3, Q07157 = biological target: TJP1_3, Q07157
DFNB31_3, Q9P202 = biological target: T10, DFNB31_3, Q9P202
DLG4_2, P78352 = biological target: DLG4_2, P78352
NOS1, P29475 = biological target: NOS1, P29475
MAGI2_2, Q86UL8 = biological target: MAGI2_2, Q86UL8
Inadl_6, Q8NI35 = biological target: Inadl_6, Q8NI35
DLG5_1, Q8TDM6 = biological target: DLG5_1, Q8TDM6
Chain of DLG5_1, Q8TDM6 (Q8TDM6 617-713): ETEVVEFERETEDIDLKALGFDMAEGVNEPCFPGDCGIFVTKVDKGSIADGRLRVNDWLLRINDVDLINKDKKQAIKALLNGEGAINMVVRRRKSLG

Chain of FRMPD2_3, Q68DX3 (Q68DX3 1073-1166): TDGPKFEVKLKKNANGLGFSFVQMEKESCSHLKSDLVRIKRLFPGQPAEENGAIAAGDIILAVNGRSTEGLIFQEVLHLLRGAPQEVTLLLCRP
Chain of TJP1_3, Q07157 (Q07157 416-512): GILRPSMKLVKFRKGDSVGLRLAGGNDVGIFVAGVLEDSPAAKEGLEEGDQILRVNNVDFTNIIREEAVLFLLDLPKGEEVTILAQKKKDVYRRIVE
Chain of MAGI2_2, Q86UL8 (Q86UL8 410-522): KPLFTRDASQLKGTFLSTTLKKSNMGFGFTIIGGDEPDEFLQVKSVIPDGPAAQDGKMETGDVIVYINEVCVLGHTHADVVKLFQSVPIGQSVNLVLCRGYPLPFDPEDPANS
Chain of Inadl_6, Q8NI35 (Q8NI35 1058-1167): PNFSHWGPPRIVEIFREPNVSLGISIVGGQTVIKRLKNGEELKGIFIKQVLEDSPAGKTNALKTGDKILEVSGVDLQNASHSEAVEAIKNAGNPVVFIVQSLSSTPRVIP
Chain of MAGI2_6, Q86UL8 (Q86UL8 1141-1229): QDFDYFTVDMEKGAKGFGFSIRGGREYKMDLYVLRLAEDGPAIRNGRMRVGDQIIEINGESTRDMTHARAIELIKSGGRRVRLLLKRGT
Chain of NOS1, P29475 (P29475 9-101): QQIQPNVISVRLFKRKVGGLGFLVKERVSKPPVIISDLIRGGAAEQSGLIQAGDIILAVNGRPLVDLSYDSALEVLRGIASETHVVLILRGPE
Chain of NHERF4_1, Q86UT5-2 (Q86UT5 other isoform, or with tags, fused parts or gaps): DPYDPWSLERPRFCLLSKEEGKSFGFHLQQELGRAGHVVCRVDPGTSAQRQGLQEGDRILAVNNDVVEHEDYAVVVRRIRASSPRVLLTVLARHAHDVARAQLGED
Chain of GRID2IP_1, A4D2P6 (A4D2P6 1-87): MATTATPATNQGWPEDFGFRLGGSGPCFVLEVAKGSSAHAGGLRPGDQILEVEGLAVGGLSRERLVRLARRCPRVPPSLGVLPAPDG
Chain of GORASP1, Q9BQQ3 (Q9BQQ3 1-208): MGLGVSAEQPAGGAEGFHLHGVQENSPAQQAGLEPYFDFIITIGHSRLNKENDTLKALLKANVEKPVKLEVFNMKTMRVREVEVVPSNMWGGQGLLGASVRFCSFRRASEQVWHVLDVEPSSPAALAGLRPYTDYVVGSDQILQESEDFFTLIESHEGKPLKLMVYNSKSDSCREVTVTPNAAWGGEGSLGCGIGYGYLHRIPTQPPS
Chain of Inadl_8, Q8NI35 (Q8NI35 1425-1530): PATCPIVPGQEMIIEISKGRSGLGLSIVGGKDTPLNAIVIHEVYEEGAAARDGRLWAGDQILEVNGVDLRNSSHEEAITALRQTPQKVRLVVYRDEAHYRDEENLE
Chain of DLG2_2, Q15700 (Q15700 189-283): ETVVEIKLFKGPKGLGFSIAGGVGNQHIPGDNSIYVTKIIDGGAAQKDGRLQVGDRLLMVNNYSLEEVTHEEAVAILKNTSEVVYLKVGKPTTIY
Chain of DLG4_2, P78352 (P78352 155-259): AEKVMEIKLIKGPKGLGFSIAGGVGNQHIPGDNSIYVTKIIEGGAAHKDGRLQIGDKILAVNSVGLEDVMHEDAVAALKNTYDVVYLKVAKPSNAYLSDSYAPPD
Chain of IL16_1, Q14005 (Q14005 210-306): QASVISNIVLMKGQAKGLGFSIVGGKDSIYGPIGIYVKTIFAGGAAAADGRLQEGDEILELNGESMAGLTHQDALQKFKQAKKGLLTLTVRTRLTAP
Chain of DLG4_1, P78352 (P78352 62-152): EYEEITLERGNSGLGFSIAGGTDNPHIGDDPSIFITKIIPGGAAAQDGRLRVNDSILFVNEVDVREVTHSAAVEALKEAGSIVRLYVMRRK
Chain of PICK1, Q9NRD5 (Q9NRD5 17-115): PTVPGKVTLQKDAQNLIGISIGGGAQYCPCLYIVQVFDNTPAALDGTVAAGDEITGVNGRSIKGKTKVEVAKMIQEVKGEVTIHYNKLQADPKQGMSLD
Chain of PTPN3, P26045 (P26045 505-587): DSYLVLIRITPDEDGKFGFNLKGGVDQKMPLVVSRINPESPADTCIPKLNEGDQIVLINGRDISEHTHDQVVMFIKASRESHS

Row | Binder | pKd (TIAM2, Q8IVF5) | pKd (NHERF3_1, Q5T2W1) | pKd (NHERF3_3, Q5T2W1) | pKd (NHERF4_1, Q86UT5-2) | pKd (DLG2_2, Q15700) | pKd (MAGI2_6, Q86UL8) | pKd (MPP2, Q14168) | pKd (GRID2IP_1, A4D2P6) | pKd (DLG4_1, P78352) | pKd (PTPN3, P26045) | pKd (PICK1, Q9NRD5) | pKd (LNX2_2, Q8N448) | pKd (GRIP1_5, Q9Y3R0) | pKd (TJP3_3, O95049) | pKd (IL16_1, Q14005) | pKd (GORASP1, Q9BQQ3) | pKd (Inadl_8, Q8NI35) | pKd (PCLO, Q9Y6V0) | pKd (FRMPD2_3, Q68DX3) | pKd (SHANK1, Q9Y566) | other results
1 | B1 | below the threshold | below the threshold | below the threshold | below the threshold | below the threshold | below the threshold | below the threshold | below the threshold | below the threshold | below the threshold | 4.21 | below the threshold | below the threshold | below the threshold | below the threshold | below the threshold | 3.98 | below the threshold | below the threshold | below the threshold | pKd (TJP1_3, Q07157): below the threshold; pKd (DFNB31_3, Q9P202): below the threshold; pKd (DLG4_2, P78352): below the threshold; pKd (NOS1, P29475): below the threshold; pKd (MAGI2_2, Q86UL8): below the threshold; pKd (Inadl_6, Q8NI35): below the threshold; pKd (DLG5_1, Q8TDM6): below the threshold
2 | B2 | 4.06 | 5.18 | below the threshold | 4.28 | 3.57 | 4.59 | below the threshold | below the threshold | below the threshold | 4.83 | 4.08 | below the threshold | below the threshold | below the threshold | below the threshold | below the threshold | 3.53 | below the threshold | below the threshold | 4.39 | pKd (TJP1_3, Q07157): below the threshold; pKd (DFNB31_3, Q9P202): 3.85; pKd (DLG4_2, P78352): 3.7; pKd (NOS1, P29475): 3.75; pKd (MAGI2_2, Q86UL8): 3.88; pKd (Inadl_6, Q8NI35): 3.7; pKd (DLG5_1, Q8TDM6): below the threshold
3 | B3 | 4.41 | 4.61 | below the threshold | below the threshold | below the threshold | below the threshold | 4.39 | below the threshold | below the threshold | 4.37 | below the threshold | 4.81 | below the threshold | 3.98 | 3.72 | 4.33 | 3.48 | below the threshold | 4.38 | below the threshold | pKd (TJP1_3, Q07157): below the threshold; pKd (DFNB31_3, Q9P202): 3.97; pKd (DLG4_2, P78352): 3.67; pKd (NOS1, P29475): 4.11; pKd (MAGI2_2, Q86UL8): 4.32; pKd (Inadl_6, Q8NI35): below the threshold; pKd (DLG5_1, Q8TDM6): below the threshold
